Experiment [1] has as its target human glucagon-like peptide 1 receptor (human, UniProt P43220 24-463). Nature of the experiment: cell-based or functional assay.
Another experiment addresses human glucagon receptor (human, UniProt P47871 26-477). As to the kind of experiment: cell-based or functional assay.

Non-standard residues stand in square brackets, D forms with d.

human glucagon-like peptide 1 receptor, sequence (P43220 24-463): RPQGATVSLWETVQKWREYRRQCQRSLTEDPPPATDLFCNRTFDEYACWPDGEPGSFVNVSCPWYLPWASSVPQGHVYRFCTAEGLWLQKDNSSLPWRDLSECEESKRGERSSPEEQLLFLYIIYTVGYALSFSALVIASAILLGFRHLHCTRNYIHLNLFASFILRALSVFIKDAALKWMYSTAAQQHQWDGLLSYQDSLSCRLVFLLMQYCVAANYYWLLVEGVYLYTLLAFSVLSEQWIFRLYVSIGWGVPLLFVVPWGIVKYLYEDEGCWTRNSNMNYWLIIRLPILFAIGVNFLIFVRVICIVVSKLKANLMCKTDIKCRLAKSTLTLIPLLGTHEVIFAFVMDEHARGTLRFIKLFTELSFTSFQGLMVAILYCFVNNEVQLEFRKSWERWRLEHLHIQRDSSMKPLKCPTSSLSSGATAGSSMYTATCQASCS

B1: ZP2637 (peptide)
peptide: H-HSQGTFTSDYSKYLDRARAEDFVAWLKST-NH2
Turning to B1, the “EC50 of cAMP formation, HEK293 cells expressing human GLP-1R” value in experiment [1] was determined as 0.1 nM. Moreover, the “EC50 of cAMP formation, HEK293 cells expressing human Glucagon-R” value in the experiment with human glucagon receptor was found to be 0.2 nM.

B2: ZP2634 (peptide)
peptide: H-HSQGTFTSDYSKYLDRARADDFVAWLKSA-NH2
For B2, the “EC50 of cAMP formation, HEK293 cells expressing human GLP-1R” value in experiment [1] was 0.2 nM. The “EC50 of cAMP formation, HEK293 cells expressing human Glucagon-R” value with human glucagon receptor was 0.5 nM.

B3: ZP2495 (peptide)
peptide: H-HSQGTFTSDYSKYLDRARADDFVAWLKST-NH2
For the molecule B3, the “EC50 of cAMP formation, HEK293 cells expressing human GLP-1R” value in experiment [1] is 0.23 nM. For the same molecule, the “EC50 of cAMP formation, HEK293 cells expressing human Glucagon-R” value with human glucagon receptor came out at 0.5 nM.

B4: ZP2654 (peptide)
peptide: H-H[dS]QGTFTSDYSKYLDRARADDFVAWLKST-NH2
SMILES: CC(C)C[C@H](NC(=O)[C@H](Cc1c[nH]c2ccccc12)NC(=O)[C@H](C)NC(=O)[C@@H](NC(=O)[C@H](Cc1ccccc1)NC(=O)[C@H](CC(=O)O)NC(=O)[C@H](CC(=O)O)NC(=O)[C@H](C)NC(=O)[C@H](CCCNC(=N)N)NC(=O)[C@H](C)NC(=O)[C@H](CCCNC(=N)N)NC(=O)[C@H](CC(=O)O)NC(=O)[C@H](CC(C)C)NC(=O)[C@H](Cc1ccc(O)cc1)NC(=O)[C@H](CCCCN)NC(=O)[C@H](CO)NC(=O)[C@H](Cc1ccc(O)cc1)NC(=O)[C@H](CC(=O)O)NC(=O)[C@H](CO)NC(=O)[C@@H](NC(=O)[C@H](Cc1ccccc1)NC(=O)[C@@H](NC(=O)CNC(=O)[C@H](CCC(N)=O)NC(=O)[C@@H](CO)NC(=O)[C@@H](N)Cc1c[nH]cn1)[C@@H](C)O)[C@@H](C)O)C(C)C)C(=O)N[C@@H](CCCCN)C(=O)N[C@@H](CO)C(=O)N[C@H](C(N)=O)[C@@H](C)O
As for B4, in experiment [1], the “EC50 of cAMP formation, HEK293 cells expressing human GLP-1R” value amounted to 0.8 nM. Further, the “EC50 of cAMP formation, HEK293 cells expressing human Glucagon-R” value with human glucagon receptor worked out at 0.5 nM.

B5: ZP2635 (peptide)
peptide: H-HSQGTFTSDYSKYLDRARADDFVAWLKEA-NH2
Consider B5, for which, in experiment [1], the “EC50 of cAMP formation, HEK293 cells expressing human GLP-1R” value amounted to 0.2 nM. Further, the “EC50 of cAMP formation, HEK293 cells expressing human Glucagon-R” value with human glucagon receptor was 0.2 nM.

B6: ZP2649 (peptide)
peptide: H-HSQGTFTSDYSKYLDRARADDFVEWLKST-NH2
With B6, the “EC50 of cAMP formation, HEK293 cells expressing human GLP-1R” value in experiment [1] stood at 0.1 nM. Further, the “EC50 of cAMP formation, HEK293 cells expressing human Glucagon-R” value with human glucagon receptor is 0.3 nM.

B7: ZP2648 (peptide)
peptide: H-HSQGTFTSDYSKYLDRARAHDFVAWLKST-NH2
B7: the “EC50 of cAMP formation, HEK293 cells expressing human GLP-1R” value in experiment [1] was 0.1 nM. Besides, the “EC50 of cAMP formation, HEK293 cells expressing human Glucagon-R” value with human glucagon receptor is 0.2 nM.

B8: ZP2650 (peptide)
peptide: H-HSQGTFTSDYSKYLDRARADDFVAWLERA-NH2
As to B8, the “EC50 of cAMP formation, HEK293 cells expressing human GLP-1R” value in experiment [1] turned out to be 0.8 nM. The “EC50 of cAMP formation, HEK293 cells expressing human Glucagon-R” value in the experiment with human glucagon receptor was determined as 0.07 nM.

Source of the values: patent US20140127175A1 (ZEALAND PHARMA A S, published 2014).
